Patent US20260217789A1 (GLYCOERA, published 2026)

Tests used:
[1] = target: T1, PLA2R glycoengineered polypeptide (human, UniProt Q13018 21-505, N-glycans, mainly A2GalNAc2 (83.6% of total N-glycan); six N-glycosylation sites: N93, N315, N433, N454, N473 and one in the C-terminal glycotag; occupancy per Table 2: N93 >99%, N315 <10%, N433 <1%, …); experiment: SPR (Biacore 8K), single cycle kinetics, immobilized ligand ASGPR1 1ug/mL (biotinylated, streptavidin capture), heterogeneous binding model; column KD1 (first component)
T1 construct: Secreted from glycoengineered Leishmania tarentolae (cell line StCGP6199) and purified by IMAC; also called exemplary PLA2R glycoengineered polypeptide; glycoengineered PLA2R polypeptide
T1 sequence (Q13018 other isoform, or with tags, fused parts or gaps): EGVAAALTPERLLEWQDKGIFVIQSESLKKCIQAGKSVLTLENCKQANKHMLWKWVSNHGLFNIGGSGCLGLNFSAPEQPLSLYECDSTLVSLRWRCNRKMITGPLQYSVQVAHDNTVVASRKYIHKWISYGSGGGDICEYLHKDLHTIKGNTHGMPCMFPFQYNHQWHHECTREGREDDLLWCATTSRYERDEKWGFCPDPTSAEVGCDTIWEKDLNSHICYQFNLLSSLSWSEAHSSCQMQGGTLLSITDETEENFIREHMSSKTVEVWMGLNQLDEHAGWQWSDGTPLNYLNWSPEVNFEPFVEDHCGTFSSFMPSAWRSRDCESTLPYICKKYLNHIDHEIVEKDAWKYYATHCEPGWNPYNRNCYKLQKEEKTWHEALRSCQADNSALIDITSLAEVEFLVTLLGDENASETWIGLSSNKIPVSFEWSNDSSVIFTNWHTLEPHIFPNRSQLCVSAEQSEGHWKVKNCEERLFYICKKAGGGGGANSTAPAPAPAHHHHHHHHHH
From the text: (§1) Methods: Surface plasmon resonance (SPR) was used to measure binding kinetics (i.e., ka, kd, KD, equilibrium) of a glycoengineered PLA2R polypeptide. SPR data was collected with a Biacore 8K instrument to characterize interactions between the PLA2R glycoengineered polypeptide and surrogate anti-PLA2R antibody 12-6-5 in multiple assay formats. The surrogate antibody was either captured using the Fc tag or covalently immobilized on the sensor surface, and the PLA2R glycoengineered polypeptide construct was injected in increasing concentrations in a single cycle kinetics experiment. The contact time was 300 s and the dissociation time was 1200 s. The data was fit to a 1:1 binding model with the global fitting software provided by Cytivia. For ASGPR1 binding experiments, biotinylated recombinant human ASGPR1 (Acro Biosystems) was immobilized using streptavidin capture, and increasing concentrations of the PLA2R glycoengineered polypeptide were injected in a single cycle kinetics experiment. ASGPR1 assays included 2 mM CaCl₂) in the running buffer. The data were fit using a heterogeneous binding model using the Cytvia provided software.

[2] = target: T1, PLA2R glycoengineered polypeptide; experiment: SPR (Biacore 8K), single cycle kinetics, immobilized ligand ASGPR1 1ug/mL (biotinylated, streptavidin capture), heterogeneous binding model; column ka1 (first component)
From the text: as §1

[3] = target: T1, PLA2R glycoengineered polypeptide; experiment: SPR, Biacore 8K, single cycle kinetics, heterogeneous binding model; biotinylated ASGPR1 on streptavidin, 2 mM CaCl2 (FIG. 1C)
From the text: as §1

[4] = target: T1, PLA2R glycoengineered polypeptide; experiment: SPR, Biacore 8K, steady state KD; biotinylated ASGPR1 on streptavidin, 2 mM CaCl2 (FIG. 1C)
From the text: as §1

[5] = target: T1, PLA2R glycoengineered polypeptide; experiment: SPR (Biacore 8K), single cycle kinetics, immobilized ligand ASGPR1 1ug/mL (biotinylated, streptavidin capture), heterogeneous binding model; column kd1 (first component)
From the text: as §1

Kd [1]: 7 nM | kon [2]: 421000 M⁻¹ s⁻¹ | koff [3]: 0.104 s⁻¹ | kon [3]: 80900 M⁻¹ s⁻¹ | Kd [4]: 1280 nM | koff [5]: 0.00294 s⁻¹
B1: biotinylated recombinant human ASGPR1 (Acro Biosystems) (receptor, UniProt P07306 62-291, looked up)
chain: QNSQLQEELRGLRETFSNFTASTEAQVKGLSTQGGNVGRKMKSLESQLEKQQKDLSEDHSSLLLHVKQFVSDLRSLSCQMAALQGNGSERTCCPVNWVEHERSCYWFSRSGKAWADADNYCRLEDAHLVVVTSWEEQKFVQHHIGPVNTWMGLHDQNGPWKWVDGTDYETGFKNWRPEQPDDWYGHGLGGGEDCAHFTDDGRWNDDVCQRPYRWVCETELDKASQEPPLL
modifications: biotinylated
notes: It was immobilized by streptavidin capture
